In article PMC3519786, “Novel Interactions between FOXM1 and CDC25A Regulate the Cell Cycle” (PLoS ONE, 2012):

Target: T1, GAL4-FOXM1 C-terminal fragment (amino acids 330-763) (human, UniProt Q08050-1 330-763)
T1 construct: FOXM1, human, C-terminal fragment, amino acids 330-763; from pCMV-XL5-FOXM1B (Origene); also called C-terminal FOXM1; C-terminus of FOXM1; source: mammalian two-hybrid fusion, U2OS, transfected
T1 sequence (looked up): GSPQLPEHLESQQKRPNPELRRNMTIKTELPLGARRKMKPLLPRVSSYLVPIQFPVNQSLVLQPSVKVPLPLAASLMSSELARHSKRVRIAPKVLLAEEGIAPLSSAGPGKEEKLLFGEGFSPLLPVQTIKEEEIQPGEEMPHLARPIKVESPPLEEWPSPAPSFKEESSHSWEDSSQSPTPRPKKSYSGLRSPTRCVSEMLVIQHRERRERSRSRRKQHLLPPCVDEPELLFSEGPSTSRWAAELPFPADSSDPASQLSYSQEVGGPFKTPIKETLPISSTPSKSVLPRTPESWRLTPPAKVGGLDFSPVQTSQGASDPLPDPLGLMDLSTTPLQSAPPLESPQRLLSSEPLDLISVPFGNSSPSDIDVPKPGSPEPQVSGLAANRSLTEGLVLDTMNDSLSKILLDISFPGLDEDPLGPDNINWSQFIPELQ
Assay: two-hybrid; mammalian two-hybrid (Checkmate, Promega) in U2OS; bait pBIND (GAL4 DNA-binding domain)-FOXM1, prey pACT (VP16 activation domain)-CDC25A, reporter pG5-luc; firefly normalised to Renilla luciferase; 2 days
Conditions: partners not purified

B1: VP16-CDC25A (natural protein, UniProt P30304 1-524, looked up)
chain: MELGPEPPHRRRLLFACSPPPASQPVVKALFGASAAGGLSPVTNLTVTMDQLQGLGSDYEQPLEVKNNSNLQRMGSSESTDSGFCLDSPGPLDSKENLENPMRRIHSLPQKLLGCSPALKRSHSDSLDHDIFQLIDPDENKENEAFEFKKPVRPVSRGCLHSHGLQEGKDLFTQRQNSAPARMLSSNERDSSEPGNFIPLFTPQSPVTATLSDEDDGFVDLLDGENLKNEEETPSCMASLWTAPLVMRTTNLDNRCKLFDSPSLCSSSTRSVLKRPERSQEESPPGSTKRRKSMSGASPKESTNPEKAHETLHQSLSLASSPKGTIENILDNDPRDLIGDFSKGYLFHTVAGKHQDLKYISPEIMASVLNGKFANLIKEFVIIDCRYPYEYEGGHIKGAVNLHMEEEVEDFLLKKPIVPTDGKRVIVVFHCEFSSERGPRMCRYVRERDRLGNEYPKLHYPELYVLKGGYKEFFMKCQSYCEPPSYRPMHHEDFKEDLKKFRTKSRTWAGEKSKREMYSRLKKL
notes: CDC25A (cell division cycle 25A) dual phosphatase; plasmid bought from Origene; also called pACT-CDC25A; wild-type CDC25A; source: mammalian two-hybrid fusion, U2OS, transfected
fold above background (normalised luciferase activity): > 60000 fold
